Results on one molecule are retold here after doi:10.1101/2025.03.30.646023 (bioRxiv, 2025).

This assay addresses SARS-CoV-2 (ancestral strain) RBD protein (SARS-CoV-2 ancestral strain, UniProt P0DTC2). Kind of assay: SPR. In general terms: SPR reads the build-up and loss of mass on a sensor chip optically.

B1: PRO-37587 (antibody, V domains shown)
VH: QVQLVQSGAEVKKPGSSVKVSCKASGDTSDTYTISWVRQAPGQGLEWMGRIILLSGYANYAQKIQGRVTITADKSTSTAYMELTSLRSDDTAVYYCARGFNGDYYGWGDDDAFDFWGQGTLVTVYS
VL: QTVLTQPPSVSGAPGQRVTISCTGSSSNIGAGYRVHWYQQLPGTAPKLLIAGRSNRPSGVPDRFSGSKSGTSASLAITGLQAEDEADYYCQSYDSSLFDPHWVFGGGTKLTVL
Take B1: the binding result is given as “binds”.
